In the RNAGym collection of RNA variant scans (doi:10.1093/molbev/msab373) one finds reverse-splicing fitness data, which are given here for 15 variants.

First the molecules themselves.
B1: Azoarcus group I ribozyme (parent)
chain: GUGCCUUGCGCCGGGAAACCACGCAAGGGAUGGUGUCAAAUUCGGCGAAACCUAAGCGCCCGCCCGGGCGUAUGGCAACGCCGAGCCAAGCUUCGGCGCCUGCGCCGAUGAAGGUGUAGAGACUAGACGGCACCCACCUAAGGCAAACGCUAUGGUGAAGGCAUAGUCCAGGGAGUGGCGAAAGUCACACAAACCGG

In this data set the parent is B1. Description: reverse-splicing fitness (ratio to wild type); higher = more active; in vitro selection; Mg2+ level not given. Put shortly:
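An in vitro group I ribozyme library with randomized positions was T7-transcribed and gel-purified. In triplicate, 10 pmol RNA in EPPS pH 7.5 was reacted with 50 pmoles of a 30-nt RNA substrate for 1 h at 37 °C across several added MgCl2 levels (1–48 mM), then stopped with EDTA. Products were reverse transcribed from a substrate-complementary primer, PCR-amplified and sequenced (HiSeq 4000). Fitness is a variant's read proportion after selection over that before, normalised to wild type.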
GUGCCUUGCGCCGGGAAACCACGCAAGGGAUGGUGUCAAAUUCGGCGAAACCUAAGCGCCCGCCCGGGCGUAUGGCAACGCAGAGCCAAGCUUCGGCGCCUGCGCCGAUGCAGGUGUAGUGACUAGACGGCACCCACCUAAGGCAAACGCUAUGGUGAAGGCAUAGUCUAGGGAGCGGCGAAAGUCACACAAACCGG: the reverse-splicing fitness was 0.00626.
As to GUGCCUUGCGCCGGGAAACCACGCAAGGGAUGGUGUCAAAUUCGGCGAAACCUAAGCGCCCGCCCGGGCGUAUGGCAACGCAGAGCCAAGCUUCGGCGCCUGCGCCGAUGCAGGUGUAGUGACUAGACGGCACCCACCUAAGGCAAACGCUAUGGUGAAGGCAUAGUCUAGGGAGGGGCGAAAGUCACACAAACCGG, the reverse-splicing fitness amounted to 0.00199.
On to GUGCCUUGCGCCGGGAAACCACGCAAGGGAUGGUGUCAAAUUCGGCGAAACCUAAGCGCCCGCCCGGGCGUAUGGCAACGCAGAGCCAAGCUUCGGCGCCUGCGCCGAUGCAGGUGUAGUGACUAGACGGCACCCACCUAAGGCAAACGCUAUGGUGAAGGCAUAGUCUAGGGAGAGGCGAAAGUCACACAAACCGG, for which the reverse-splicing fitness came out at 0.00613.
Regarding GUGCCUUGCGCCGGGAAACCACGCAAGGGAUGGUGUCAAAUUCGGCGAAACCUAAGCGCCCGCCCGGGCGUAUGGCAACGCAGAGCCAAGCUUCGGCGCCUGCGCCGAUGCAGGUGUAGAGACUAGACGGCACCCACCUAAGGCCAACGAUAUGGUGAAGGCAUAGUCCAGGGAGUGGCGAAAGUCACACAAACCGG, the reverse-splicing fitness was found to be 0.0144.
Turning to GUGCCUUGCGCCGGGAAACCACGCAAGGGAUGGUGUCAAAUUCGGCGAAACCUAAGCGCCCGCCCGGGCGUAUGGCAACGCAGAGCCAAGCUUCGGCGCCUGCGCCGAUGCAGGUGUAGAGACUAGACGGCACCCACCUAAGGCCAACGGUAUGGUGAAGGCAUAGUCCAGGGAGUGGCGAAAGUCACACAAACCGG, the reverse-splicing fitness was found to be 0.0226.
Regarding GUGCCUUGCGCCGGGAAACCACGCAAGGGAUGGUGUCAAAUUCGGCGAAACCUAAGCGCCCGCCCGGGCGUAUGGCAACGCAGAGCCAAGCUUCGGCGCCUGCGCCGAUGCAGGUGUAGUGACUAGACGGCACCCACCUAAGGCAAACGCUAUGGUGAAGGCAUAGUCCAGGGAGCGGCGAAAGUCACACAAACCGG, the reverse-splicing fitness turned out to be 0.0115.
As for GUGCCUUGCGCCGGGAAACCACGCAAGGGAUGGUGUCAAAUUCGGCGAAACCUAAGCGCCCGCCCGGGCGUAUGGCAACGCAGAGCCAAGCUUCGGCGCCUGCGCCGAUGCAGGUGUAGUGACUAGACGGCACCCACCUAAGGCAAACGCUAUGGUGAAGGCAUAGUCCAGGGAGAGGCGAAAGUCACACAAACCGG, the reverse-splicing fitness came out at 0.00732.
Regarding GUGCCUUGCGCCGGGAAACCACGCAAGGGAUGGUGUCAAAUUCGGCGAAACCUAAGCGCCCGCCCGGGCGUAUGGCAACGCAGAGCCAAGCUUCGGCGCCUGCGCCGAUGCAGGUGUAGUGACUAGACGGCACCCACCUAAGGCAAACGCUAUGGUGAAGGCAUAGUCCAGGGAGGGGCGAAAGUCACACAAACCGG, the reverse-splicing fitness worked out at 0.00382.
As to GUGCCUUGCGCCGGGAAACCACGCAAGGGAUGGUGUCAAAUUCGGCGAAACCUAAGCGCCCGCCCGGGCGUAUGGCAACGCAGAGCCAAGCUUCGGCGCCUGCGCCGAUGCAGGUGUAGAGACUAGACGGCACCCACCUAAGGCCAACGAUAUGGUGAAGGCAUAGUCCAGGGAGCGGCGAAAGUCACACAAACCGG, the reverse-splicing fitness worked out at 0.0176.
As to GUGCCUUGCGCCGGGAAACCACGCAAGGGAUGGUGUCAAAUUCGGCGAAACCUAAGCGCCCGCCCGGGCGUAUGGCAACGCAGAGCCAAGCUUCGGCGCCUGCGCCGAUGCAGGUGUAGAGACUAGACGGCACCCACCUAAGGCCAACGAUAUGGUGAAGGCAUAGUCCAGGGAGGGGCGAAAGUCACACAAACCGG, the reverse-splicing fitness came out at 0.00856.
The figure for GUGCCUUGCGCCGGGAAACCACGCAAGGGAUGGUGUCAAAUUCGGCGAAACCUAAGCGCCCGCCCGGGCGUAUGGCAACGCAGAGCCAAGCUUCGGCGCCUGCGCCGAUGCAGGUGUAGAGACUAGACGGCACCCACCUAAGGCCAACGAUAUGGUGAAGGCAUAGUCCAGGGAGAGGCGAAAGUCACACAAACCGG is 0.0105.
The figure for GUGCCUUGCGCCGGGAAACCACGCAAGGGAUGGUGUCAAAUUCGGCGAAACCUAAGCGCCCGCCCGGGCGUAUGGCAACGCAGAGCCAAGCUUCGGCGCCUGCGCCGAUGCAGGUGUAGAGACUAGACGGCACCCACCUAAGGCCAACGAUAUGGUGAAGGCAUAGUCUAGGGAGUGGCGAAAGUCACACAAACCGG is 0.00921; for GUGCCUUGCGCCGGGAAACCACGCAAGGGAUGGUGUCAAAUUCGGCGAAACCUAAGCGCCCGCCCGGGCGUAUGGCAACGCAGAGCCAAGCUUCGGCGCCUGCGCCGAUGCAGGUGUAGAGACUAGACGGCACCCACCUAAGGCCAACGAUAUGGUGAAGGCAUAGUCGAGGGAGUGGCGAAAGUCACACAAACCGG it is 0.0093.
For GUGCCUUGCGCCGGGAAACCACGCAAGGGAUGGUGUCAAAUUCGGCGAAACCUAAGCGCCCGCCCGGGCGUAUGGCAACGCAGAGCCAAGCUUCGGCGCCUGCGCCGAUGCAGGUGUAGAGACUAGACGGCACCCACCUAAGGCCAACGAUAUGGUGAAGGCAUAGUCAAGGGAGUGGCGAAAGUCACACAAACCGG, the reverse-splicing fitness was 0.00835.
With GUGCCUUGCGCCGGGAAACCACGCAAGGGAUGGUGUCAAAUUCGGCGAAACCUAAGCGCCCGCCCGGGCGUAUGGCAACGCAGAGCCAAGCUUCGGCGCCUGCGCCGAUGCAGGUGUAGAGACUAGACGGCACCCACCUAAGGCCAACGCUAUGGUGAAGGCAUAGUCCAGGGAGUGGCGAAAGUCACACAAACCGG, the reverse-splicing fitness was found to be 0.212.
